Article PMC6610666, “E2F4 regulates transcriptional activation in mouse embryonic stem cells independently of the RB family” (Nature Communications, 2019)

Molecular target: mouse CBP TAZ1 (residues 340-439) (mouse, UniProt P45481 340-439)
Assay: ITC; MicroCal VP-ITC; E2F4 TAD (300 uM) titrated into TAZ1 (30 uM) at 25 C; 25 mM HEPES pH 7.0, 200 mM NaCl, 5% glycerol v/v; E2F4 concentration adjusted such that N was close to 1
Conditions: both partners purified

Sequence of mouse CBP TAZ1 (residues 340-439) (P45481 340-439): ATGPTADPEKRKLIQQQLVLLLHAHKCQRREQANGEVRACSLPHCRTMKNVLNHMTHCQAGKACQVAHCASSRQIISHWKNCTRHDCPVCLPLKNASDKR

B1: human E2F4 transactivation domain (residues 390-407) (domain or fragment, UniProt Q16254 390-407, looked up)
chain: HDYIYNLDESEGVCDLFD
notes: also called E2F4 TAD; E2F4 peptide; source: E. coli, purified (GST fusion, Superdex-75)
Q: Does B1 bind?
A: binds
